Bounds are passed on as bounds.

The values below come from the Immune Epitope Database (IEDB).

Assay [1] has as its target HLA-A*11:01. The experiment in a line: IEDB peptide-MHC binding, purified MHC/competitive/fluorescence; ≥ and ≤ were set here for values at or beyond the usual limits of such assays.
Assay [2] deals with HLA-B*57:01. Briefly: IEDB peptide-MHC binding, purified MHC/direct/fluorescence; filed as Kd, often an IC50 or EC50 that approximates it; ≥ and ≤ were set here for values at or beyond the usual limits of such assays.
In assay [3] the target is HLA-B*15:17. The description is as above.
The target in assay [4] is HLA-B*58:01. Described as above.
The target of assay [5] is HLA-B*48:01. The description is as above.
For assay [6], the target named is HLA-A*29:02. Briefly: IEDB peptide-MHC binding, purified MHC/competitive/fluorescence; filed as Kd, often an IC50 or EC50 that approximates it; ≥ and ≤ were set here for values at or beyond the usual limits of such assays.
For assay [7], the target named is HLA-B*08:01. Briefly: IEDB peptide-MHC binding, purified MHC/competitive/radioactivity; filed as Kd, often an IC50 or EC50 that approximates it; ≥ and ≤ were set here for values at or beyond the usual limits of such assays.
For assay [8], the target named is HLA-A*30:01. The assay is described as above.
Assay [9] deals with HLA-B*15:03. Described as above.
The target of assay [10] is HLA-B*15:01. Described as above.
Assay [11] concerns the target HLA-A*32:01. Described as above.
Assay [12] addresses HLA-A*02:02. Described as above. The settings on record: source organism: Vaccinia virus WR.
The target in assay [13] is HLA-A*02:03. The description is as above. The settings on record: source organism: Vaccinia virus WR.
The target in assay [14] is HLA-A*02:06. Described as above. The settings on record: source organism: Vaccinia virus WR.
For assay [15], the target named is HLA-A*02:01. The experiment in a line: IEDB peptide-MHC binding, purified MHC/competitive/fluorescence; filed as Kd, often an IC50 or EC50 that approximates it; ≥ and ≤ were set here for values at or beyond the usual limits of such assays. The settings on record: source organism: Toxoplasma gondii.
The target of assay [16] is HLA-A*02:12. The assay is described as above. The settings on record: source organism: Toxoplasma gondii.
For assay [17], the target named is HLA-B*40:01. Briefly: IEDB peptide-MHC binding, purified MHC/direct/fluorescence; filed as Kd, often an IC50 or EC50 that approximates it; ≥ and ≤ were set here for values at or beyond the usual limits of such assays. The settings on record: source organism: Mycobacterium tuberculosis variant bovis.
Assay [18] deals with HLA-B*15:42. Briefly: IEDB peptide-MHC binding, purified MHC/competitive/fluorescence; filed as Kd, often an IC50 or EC50 that approximates it; ≥ and ≤ were set here for values at or beyond the usual limits of such assays. The settings on record: source organism: Mycobacterium tuberculosis variant bovis.
The target of assay [19] is HLA-B*45:06. The description is as above. The settings on record: source organism: Mycobacterium tuberculosis variant bovis.
Assay [20] addresses HLA-B*83:01. Described as above. The settings on record: source organism: Mycobacterium tuberculosis variant bovis.
Assay [21] addresses HLA-A*69:01. Briefly: IEDB peptide-MHC binding, purified MHC/direct/fluorescence; filed as Kd, often an IC50 or EC50 that approximates it; ≥ and ≤ were set here for values at or beyond the usual limits of such assays. The settings on record: source organism: Mycobacterium tuberculosis.
Assay [22] deals with HLA-A*02:03. The assay is described as above. The settings on record: source organism: Mycobacterium tuberculosis str. Haarlem.
Assay [23] concerns the target HLA-A*02:19. Described as above. The settings on record: source organism: Convict Creek 107 virus.
The target of assay [24] is HLA-A*03:01. Described as above. The settings on record: source organism: Convict Creek 107 virus.
For assay [25], the target named is HLA-A*02:12. Described as above. The settings on record: source organism: Convict Creek 107 virus.
In assay [26] the target is HLA-B*46:01. The experiment in a line: IEDB peptide-MHC binding, purified MHC/competitive/fluorescence; filed as Kd, often an IC50 or EC50 that approximates it; ≥ and ≤ were set here for values at or beyond the usual limits of such assays. The settings on record: source organism: Kurkino virus.
Assay [27] addresses HLA-B*57:01. The description is as above. The settings on record: source organism: Kurkino virus.
For assay [28], the target named is HLA-B*39:01. The assay is described as above. The settings on record: source organism: Kurkino virus.
The target of assay [29] is HLA-B*15:17. Described as above. The settings on record: source organism: Kurkino virus.
For assay [30], the target named is HLA-A*69:01. The assay is described as above. The settings on record: source organism: Kurkino virus.
For assay [31], the target named is HLA-B*51:01. The description is as above. The settings on record: source organism: Kurkino virus.
Assay [32] addresses HLA-A*26:01. The description is as above. The settings on record: source organism: Kurkino virus.
The target in assay [33] is HLA-B*18:01. The description is as above. The settings on record: source organism: Kurkino virus.
Assay [34] deals with HLA-B*27:03. The description is as above. The settings on record: source organism: Kurkino virus.
For assay [35], the target named is HLA-B*27:05. Briefly: IEDB peptide-MHC binding, purified MHC/direct/fluorescence; filed as Kd, often an IC50 or EC50 that approximates it; ≥ and ≤ were set here for values at or beyond the usual limits of such assays. The settings on record: source organism: West Nile virus.
[36] abbreviates: source organism: Vaccinia virus WR.
The mark [37] stands for this setting: source organism: Bacillus anthracis.
Where [38] appears, read: source organism: Giardia lamblia ATCC 50803.
Where [39] appears, read: source organism: Camelpox virus CMS.

Sequence ANNNRLPKR yielded a half-maximal inhibitory concentration (IC50) in [1] (setting [36]) of 11700 nM.
For the sequence CSTLPFHTW, the Kd stood at 7.1 nM in assay [2] (setting [37]), 1.2 nM in [3] (setting [37]) and 3.8 nM in assay [4] (setting [37]).
For FSLGQGVKF, the Kd in assay [3] (source organism: Shigella flexneri) came out at 1.9 nM.
In assay [5] (setting [38]), HMPAARPEL displayed a Kd of 593 nM.
Sequence IFFLPQFYY registered a Kd in assay [6] (source organism: Listeria monocytogenes FSL R2-561) of 1.6 nM.
As to ISESRFQSL, the Kd amounted to 39.6 nM in assay [7] (setting [36]); 5920 nM in assay [8] (setting [36]); 147 nM in assay [9] (setting [36]); 2890 nM in assay [10] (setting [36]); 11100 nM in [11] (setting [36]).
On to ISIPRSVGF, for which the values for the Kd in [2] (setting [39]), in assay [3] (setting [39]) and in [4] (setting [39]) were 85.9 nM, at most 1 nM and 30.3 nM, respectively.
Take KMAVEVGSI: the Kd in [9] (setting [36]) is 335 nM; in assay [12] it was 30.8 nM; in assay [13] it was 2.78 nM; in assay [14], 119 nM.
In the case of LLKDRNELF, the Kd in assay [7] (setting [36]) was 40.6 nM; in assay [8] (setting [36]) it was 108 nM; in [9] (setting [36]), 15.7 nM; in [10] (setting [36]), 1.82 nM; in assay [11] (setting [36]) it was 3070 nM.
As for LSINSSFYF, the Kd in assay [7] (source organism: Variola virus) came out at 3160 nM; in [8] (source organism: Variola virus), 970 nM; in assay [9] (source organism: Variola virus) it was 4.81 nM; in assay [10] (source organism: Variola virus) it was 1.02 nM; in assay [11] (source organism: Variola virus), 2960 nM.
On to MVKNNKIQK, for which the Kd in assay [7] (setting [36]) is 17800 nM; in assay [8] (setting [36]), 11.8 nM; in [9] (setting [36]), 9550 nM; in assay [10] (setting [36]), 18300 nM; in [11] (setting [36]), at least 77800 nM.
Regarding NLMVNEQAA, the Kd was at least 20000 nM in assay [15] and 18.9 nM in [16].
In the case of NTWNQITKF, the Kd in [2] (setting [38]) was 1110 nM; in [3] (setting [38]), 76.4 nM; in assay [4] (setting [38]), 905 nM.
For QIVAYFSEF, the Kd is 1930 nM in assay [7] (setting [36]); 12700 nM in assay [8] (setting [36]); 7.85 nM in assay [9] (setting [36]); 1.38 nM in [10] (setting [36]); 70.4 nM in assay [11] (setting [36]).
REAPYELNI: the Kd in [17] was 62.8 nM; in assay [18] it was at least 5000 nM; in [19], at least 5000 nM; in assay [20], at least 5000 nM.
For the sequence RREKRSVAL, the figures for the dissociation constant Kd in [7] (source organism: Dengue virus 2 Jamaica/1409/1983) and in assay [5] (source organism: Dengue virus) were 40.9 nM and 842 nM, respectively.
TITEKTFKD: the half-maximal inhibitory concentration (IC50) in assay [1] (source organism: Vaccinia virus Copenhagen) came to 36500 nM.
TMKERRPIL: the Kd in assay [7] (setting [36]) is 1.83 nM; in assay [8] (setting [36]), 4730 nM; in assay [9] (setting [36]), 397 nM; in assay [10] (setting [36]), 808 nM; in [11] (setting [36]) it was 2210 nM.
As for TTQSIHENK, the IC50 in [1] (source organism: Vaccinia virus) is 6040 nM.
For VLFEVFVVF, the Kd in [7] (setting [36]) was 5110 nM; in assay [8] (setting [36]), at least 24400 nM; in assay [9] (setting [36]), 4.85 nM; in [10] (setting [36]), 2.85 nM; in [11] (setting [36]), 7.8 nM.
For the sequence VLLDSITRL, the figures for the Kd in [21] and in assay [22] were 4350 nM and at most 1 nM, respectively.
For VMADFDLEM, in [6] (source organism: Vibrio cholerae NCTC 8457), the Kd is at most 0.1 nM.
Take WFLYVSQQI: the Kd in assay [23], in assay [24], in assay [25], in [26], in [27] and in assay [28] was at least 20000 nM each time. In addition, the dissociation constant Kd in assay [29], in assay [30], in assay [31], in assay [32], in [33] and in [34] was at least 20000 nM throughout.
Consider WSIYLSLHY, for which the Kd in [7] (setting [36]) was 2720 nM; in assay [8] (setting [36]) it was 17000 nM; in assay [9] (setting [36]), 8.85 nM; in assay [10] (setting [36]) it was 48.2 nM; in assay [11] (setting [36]), at least 29000 nM.
In assay [6] (setting [38]), YFNDPALGH registered a Kd of 114 nM.
As to YQSLSPPPF, the Kd in assay [7] (setting [36]) was at least 33400 nM; in assay [8] (setting [36]) it was 0.503 nM; in assay [9] (setting [36]), 0.0611 nM; in [10] (setting [36]) it was 5050 nM; in [11] (setting [36]), 4740 nM.
As to YRLRGEERK, the values for the Kd in assay [35] and in assay [5] (source organism: West Nile virus) were 883 nM and at least 20000 nM, respectively.
YYFDIYNKQ registered a Kd in assay [6] (source organism: Listeria monocytogenes EGD-e) of 73 nM.
